Source: the Immune Epitope Database (IEDB)

What was measured:
[1] = molecular target: HLA-A*02:06; assay: IEDB peptide-MHC binding, cellular MHC/competitive/fluorescence; ≥ and ≤ were set here for values at or beyond the usual limits of such assays
[2] = molecular target: HLA-A*68:02; assay: as above
[3] = molecular target: HLA-A*02:01; assay: IEDB peptide-MHC binding, purified MHC/competitive/radioactivity; ≥ and ≤ were set here for values at or beyond the usual limits of such assays
[4] = molecular target: HLA-A*02:02; assay: as above
[5] = molecular target: HLA-A*02:03; assay: as above
[6] = molecular target: HLA-A*02:01; assay: IEDB peptide-MHC binding, cellular MHC/competitive/fluorescence; ≥ and ≤ were set here for values at or beyond the usual limits of such assays
[7] = molecular target: HLA-A*68:02; assay: IEDB peptide-MHC binding, purified MHC/competitive/radioactivity; ≥ and ≤ were set here for values at or beyond the usual limits of such assays
[8] = source organism: Vaccinia virus WR
[9] = source organism: Influenza A virus
[10] = source organism: Hepacivirus hominis
[11] = source organism: Mammarenavirus whitewaterense
[12] = source organism: Mammarenavirus choriomeningitidis
[13] = source organism: Mammarenavirus lassaense
[14] = source organism: Mammarenavirus brazilense

Sequence	IC50 [1, 8]	IC50 [4, 8]	IC50 [5, 8]	IC50 [6, 8]	IC50 [7, 8]	further results
HLENDKIEDL	10600 nM	526 nM	414 nM	–	–	IC50 [2, 8]: 27100 nM; IC50 [3, 8]: 1800 nM
IVSLCPTKKL	28500 nM	9.5 nM	29 nM	9970 nM	520 nM	–
YIRRNMINKL	8660 nM	820 nM	70 nM	–	–	IC50 [2, 8]: 13700 nM; IC50 [3, 8]: 3800 nM
ALANTIEV	–	–	–	–	–	IC50 [1, 9]: 9130 nM; IC50 [2, 9]: 59300 nM; IC50 [4, 9]: 162 nM; IC50 [5, 9]: 59 nM
QILDNAAKYV	11400 nM	3930 nM	3870 nM	–	–	IC50 [2, 8]: 35800 nM; IC50 [3, 8]: 3480 nM
NLRCHSAHV	8030 nM	384 nM	11 nM	–	–	IC50 [2, 8]: 8200 nM; IC50 [3, 8]: 3060 nM
ALTDVEKRI	14300 nM	74 nM	1490 nM	–	–	IC50 [2, 8]: 23900 nM; IC50 [3, 8]: 1150 nM
KLKVDSDSGL	10000 nM	75 nM	56 nM	–	–	IC50 [2, 8]: 28200 nM; IC50 [3, 8]: 2360 nM
LLFLVLIMLI	–	–	–	–	–	IC50 ([1]; source organism: SARS-CoV1): 8300 nM; IC50 ([2]; source organism: SARS-CoV1): 5100 nM; IC50 ([3]; source organism: SARS-CoV1): 592 nM; IC50 ([4]; source organism: SARS-CoV1): 447 nM; IC50 ([5]; source organism: SARS-CoV1): 3150 nM
RLNKRSYLI	–	–	–	–	–	IC50 [1, 9]: 18500 nM; IC50 [2, 9]: 42600 nM; IC50 [4, 9]: 23 nM; IC50 [5, 9]: 146 nM
KLFKRERDA	14900 nM	2390 nM	985 nM	–	–	IC50 [2, 8]: 35800 nM; IC50 [3, 8]: 859 nM
YVLLLFLLLA	–	–	–	–	–	IC50 [1, 10]: 5900 nM; IC50 [2, 10]: 12000 nM; IC50 [3, 10]: 866 nM; IC50 [4, 10]: 1050 nM; IC50 [5, 10]: 727 nM
RMGAVTTEV	–	–	–	–	–	IC50 [1, 9]: 5520 nM; IC50 [2, 9]: 27100 nM; IC50 [3, 9]: 222 nM; IC50 [4, 9]: 90 nM; IC50 [5, 9]: 73 nM
RLRYNLCKYL	15700 nM	261 nM	0.3 nM	–	–	IC50 [2, 8]: 19200 nM; IC50 [3, 8]: 3250 nM
ETLFGSYIT	15400 nM	2490 nM	2440 nM	15600 nM	465 nM	–
LINLVQYRI	5340 nM	311 nM	583 nM	5900 nM	1730 nM	–
RVNDLNRMPT	7720 nM	1360 nM	1440 nM	7200 nM	631 nM	–
INISGYNLSL	–	–	–	–	–	IC50 [1, 11]: 11400 nM; IC50 [2, 11]: 17400 nM; IC50 [3, 11]: 1830 nM; IC50 [4, 11]: 179 nM; IC50 [5, 11]: 1360 nM
GMMQNDYGGM	12000 nM	103 nM	589 nM	–	–	IC50 [2, 8]: 26400 nM; IC50 [3, 8]: 705 nM
VISTIANSNI	5160 nM	282 nM	845 nM	7800 nM	788 nM	–
ILANERYRSA	7810 nM	104 nM	18 nM	–	–	IC50 [2, 8]: 26500 nM; IC50 [3, 8]: 802 nM
TMKAIEKDRL	≥ 70000 nM	171 nM	1060 nM	17500 nM	1570 nM	–
ALKNSQAEL	33000 nM	71 nM	17 nM	–	–	IC50 [2, 8]: ≥ 70000 nM; IC50 [3, 8]: 1740 nM

Sequence	IC50 [1, 8]	IC50 [4, 8]	IC50 [5, 8]	IC50 [6, 8]	IC50 [7, 8]	further results
IVNNFITKEI	14200 nM	1470 nM	192 nM	13700 nM	1320 nM	–
YTKHSMLTNA	7340 nM	3900 nM	141 nM	38300 nM	1420 nM	–
SLALKNSQA	19000 nM	662 nM	459 nM	–	–	IC50 [2, 8]: 29600 nM; IC50 [3, 8]: 2490 nM
NLYNIRNL	–	–	–	–	–	IC50 [1, 9]: 50800 nM; IC50 [2, 9]: 15300 nM; IC50 [3, 9]: 1340 nM; IC50 [4, 9]: 1330 nM; IC50 [5, 9]: 187 nM
IQKDINITHT	61700 nM	1360 nM	340 nM	37400 nM	4990 nM	–
KCMSAALKNL	–	–	–	–	–	IC50 [1, 12]: 14000 nM; IC50 [2, 12]: 43500 nM; IC50 [3, 12]: 1560 nM; IC50 [4, 12]: 58 nM; IC50 [5, 12]: 193 nM
IADIRDKYM	57800 nM	63 nM	230 nM	11400 nM	3110 nM	–
RLYNSLKRFT	7280 nM	1060 nM	444 nM	–	–	IC50 [2, 8]: 14600 nM; IC50 [3, 8]: 873 nM
ITHTNITTLL	14800 nM	1680 nM	101 nM	11900 nM	311 nM	–
AAAKTPVIV	67300 nM	1900 nM	1420 nM	34700 nM	2020 nM	–
ELKDLLNVT	38500 nM	1540 nM	209 nM	51600 nM	2780 nM	–
HIGHHYIWI	25300 nM	2560 nM	899 nM	–	–	IC50 [2, 8]: 19900 nM; IC50 [3, 8]: 2990 nM
LNQAVNNLV	–	–	–	–	–	IC50 [6, 13]: 7960 nM; IC50 [1, 13]: 13600 nM; IC50 [4, 13]: 511 nM; IC50 [5, 13]: 3350 nM; IC50 [7, 13]: 4880 nM
GTSGVESAV	–	–	–	–	–	IC50 [6, 9]: 10800 nM; IC50 [1, 9]: 11400 nM; IC50 [4, 9]: 1100 nM; IC50 [5, 9]: 3010 nM; IC50 [7, 9]: 683 nM
KIMSGEKPSV	–	–	–	–	–	IC50 [1, 10]: 9470 nM; IC50 [2, 10]: ≥ 70000 nM; IC50 [3, 10]: 1120 nM; IC50 [4, 10]: 411 nM; IC50 [5, 10]: 1390 nM
RAMAWTVVNSI	–	–	–	–	–	IC50 [1, 9]: 8060 nM; IC50 [2, 9]: 7510 nM; IC50 [3, 9]: 624 nM; IC50 [4, 9]: 74 nM; IC50 [5, 9]: 66 nM
DVDIPTFNSL	9710 nM	1810 nM	1030 nM	18200 nM	3050 nM	–
FTSYKRFVT	12400 nM	2330 nM	3380 nM	≥ 70000 nM	452 nM	–
VMPEKRNVVV	27600 nM	3540 nM	299 nM	–	–	IC50 [2, 8]: 6740 nM; IC50 [3, 8]: 3920 nM
KVYNGIFVDT	16400 nM	111 nM	1440 nM	11800 nM	1380 nM	–
EMKYALINL	≥ 70000 nM	3060 nM	63 nM	41200 nM	2470 nM	–
MTSTRTIIL	6790 nM	1340 nM	840 nM	6470 nM	507 nM	–
DLNRMPTDML	47400 nM	1250 nM	2190 nM	17300 nM	3940 nM	–

Sequence	IC50 [1, 8]	IC50 [4, 8]	IC50 [5, 8]	IC50 [6, 8]	IC50 [7, 8]	further results
TLFIDRGSI	≥ 70000 nM	2100 nM	802 nM	17700 nM	181 nM	–
LAEHISDSI	19300 nM	45 nM	731 nM	6050 nM	428 nM	–
DTIAHINTL	11100 nM	747 nM	233 nM	10100 nM	1240 nM	–
HMYRGGNGNT	9870 nM	2020 nM	423 nM	19300 nM	3260 nM	–
LRYFIMAYV	–	–	–	–	–	IC50 [6, 14]: 12700 nM; IC50 [1, 14]: 20100 nM; IC50 [4, 14]: 213 nM; IC50 [5, 14]: 396 nM; IC50 [7, 14]: 18 nM
FLVIAINAM	≥ 70000 nM	–	–	–	–	IC50 [2, 8]: 23300 nM
CLKNEGVSGL	14100 nM	127 nM	25 nM	6300 nM	2080 nM	–
EVTPEYIKDL	7680 nM	1520 nM	2270 nM	6500 nM	1230 nM	–
DTLVKSGLT	52900 nM	1950 nM	2880 nM	≥ 70000 nM	1950 nM	–
IVSSYVCSGL	–	–	–	–	–	IC50 [6, 9]: 6200 nM; IC50 [1, 9]: 12700 nM; IC50 [4, 9]: 161 nM; IC50 [5, 9]: 795 nM; IC50 [7, 9]: 767 nM
IAVANCVRNL	9110 nM	57 nM	467 nM	13600 nM	465 nM	–
FLRPVLKAM	5480 nM	1380 nM	9.8 nM	11900 nM	2470 nM	–
NASKTINAL	6110 nM	117 nM	708 nM	26800 nM	52 nM	–
MLHNPTSET	≥ 70000 nM	4210 nM	184 nM	13700 nM	1570 nM	–
KTVAGSFAS	–	–	–	–	–	IC50 [6, 11]: 5560 nM; IC50 [1, 11]: 9140 nM; IC50 [4, 11]: 1600 nM; IC50 [5, 11]: 3820 nM; IC50 [7, 11]: 2990 nM
LNQTVYSLV	–	–	–	–	–	IC50 [6, 12]: 9250 nM; IC50 [1, 12]: 5100 nM; IC50 [4, 12]: 3330 nM; IC50 [5, 12]: 1510 nM; IC50 [7, 12]: 262 nM
RVKQWVMDT	13500 nM	3630 nM	3.6 nM	20300 nM	603 nM	–
AAKTPVIVV	25300 nM	1360 nM	1630 nM	9430 nM	4280 nM	–
RVKQWVMDTL	27800 nM	3480 nM	689 nM	21400 nM	155 nM	–
YCSNIKLQVV	–	–	–	–	–	IC50 [6, 13]: 8600 nM; IC50 [1, 13]: 7130 nM; IC50 [4, 13]: 1240 nM; IC50 [5, 13]: 802 nM; IC50 [7, 13]: 1170 nM
AVATTHSWI	–	–	–	–	–	IC50 [6, 9]: 32900 nM; IC50 [1, 9]: 28000 nM; IC50 [4, 9]: 440 nM; IC50 [5, 9]: 753 nM; IC50 [7, 9]: 876 nM
VTSPLTGNNT	5130 nM	1450 nM	2500 nM	39500 nM	510 nM	–
